From US20200399314A1 (MEDIKINE, published 2020)
Bridge positions count the residues as written; N and C are the ends. Ends that are not written are not given here.

T1: human IL-2Rα subunit (human, UniProt P01589 22-213, limits assumed)
T1 construct: also called CD25
T1 sequence (looked up): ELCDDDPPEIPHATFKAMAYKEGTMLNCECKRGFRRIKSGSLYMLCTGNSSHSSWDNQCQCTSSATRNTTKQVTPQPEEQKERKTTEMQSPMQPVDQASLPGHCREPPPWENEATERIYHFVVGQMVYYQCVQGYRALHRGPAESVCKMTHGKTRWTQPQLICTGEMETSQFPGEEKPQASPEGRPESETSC


Target: T1, human IL-2Rα subunit

Binder | IC50
TIKCGSSGWCWVEAG [SEQ ID NO 301] | < 100 µM
VTQCFDGPGSFRCCYQ [SEQ ID NO 306] | < 100 µM
WVACNRVTGSCRPI [SEQ ID NO 279] | < 100 µM
HEICCGPPGCHSCSVT [SEQ ID NO 294] | < 100 µM
FVEWQAYFSQMM [SEQ ID NO 6] | < 100 µM
WAYDWSCFRRRL [SEQ ID NO 3] | < 100 µM
IKCRVLEAGTPCVF (disulfide 3-12 (inferred)) [SEQ ID NO 73] | < 100 µM
AICSEDEGGELCCWH [SEQ ID NO 293] | < 100 µM
AVSCSRLTGRCHSL [SEQ ID NO 278] | < 100 µM
LECQPYRGPLYYCQD [SEQ ID NO 289] | < 100 µM
EQFCLVSDPMACWSL (disulfide 4-12 (inferred)) [SEQ ID NO 50] | < 100 µM
CVACSSDGCSPIIC [SEQ ID NO 292] | < 100 µM
LRCRLDTRDGTCRF [SEQ ID NO 75] | < 100 µM
RSCNRYGIWGHCDT [SEQ ID NO 72] | < 100 µM
IRCRYEKQSGICLF [SEQ ID NO 74] | < 100 µM
STWCCLHPGVGECQAV [SEQ ID NO 296] | < 100 µM
STWCCLHPGVGECQAV [SEQ ID NO 305] | < 100 µM
VRCLYDSITRTCTF [SEQ ID NO 83] | < 100 µM
LSVCSCPPGQLYCMVE (disulfide (positions not given here); also: disulfide between two of the three Cys, which not given here) [SEQ ID NO 295] | < 100 µM
SKCVYDYNFGTCIF [SEQ ID NO 79] | < 100 µM
SGCRLSLLDGHCYF [SEQ ID NO 78] | < 100 µM
YVTCRWGYGCTR [SEQ ID NO 42] | < 100 µM
WVICSALGCKAW [SEQ ID NO 36] | < 100 µM

Binder | IC50
NHCTMDWRLGACIF [SEQ ID NO 77] | < 100 µM
VTQCFDGPGSFRCCYQ [SEQ ID NO 297] | < 100 µM
RHACKTWYRMCIVS [SEQ ID NO 277] | < 100 µM
HEICCGPPGCHSCSVT [SEQ ID NO 303] | < 100 µM
KLFCLRSGDRACWVV (disulfide 4-12 (inferred)) [SEQ ID NO 60] | < 100 µM
RGVICNHAGCRIWYG [SEQ ID NO 274] | < 100 µM
TRCTVIGPPWSCRF [SEQ ID NO 81] | < 100 µM
VSCKIDRRSGSCLF (disulfide 3-12 (inferred)) [SEQ ID NO 84] | < 100 µM
RQCNCLSPGELVNCQQ [SEQ ID NO 298] | < 100 µM
WVACNRLSGCCRPI [SEQ ID NO 281] | < 100 µM
CKLTCTSSTCSCVF [SEQ ID NO 285] | < 100 µM
RVYCLASEPNSCWST [SEQ ID NO 52] | < 100 µM
SHGVCCTQSSCRSCR [SEQ ID NO 280] | < 100 µM
VVHCLQSGCYSVGSG [SEQ ID NO 300] | < 100 µM
VFCIGYGAAQSCHS [SEQ ID NO 82] | < 100 µM
IRCRLDPPGSYKTCVF (disulfide 3-14 (inferred)) [SEQ ID NO 273] | < 100 µM
DRCDTRTWGYYCWI [SEQ ID NO 86] | < 100 µM
HTVCCQDWGCRSCSG [SEQ ID NO 282] | < 100 µM
MVSCTDLGCVVVGGG [SEQ ID NO 299] | < 100 µM
YVLCSNRNGCRP [SEQ ID NO 41] | < 100 µM
TTQSCTLRYCWLLQ (disulfide 5-10 (inferred)) [SEQ ID NO 275] | < 100 µM
CMLKCTNAICECIF [SEQ ID NO 286] | < 100 µM
SICCTPQLCHSCDG [SEQ ID NO 290] | < 100 µM

Binder | IC50
FLPWPVYFSQVL [SEQ ID NO 5] | < 100 µM
MRCILSPSREHCLF [SEQ ID NO 76] | < 100 µM
FLHWPVYFCQVM [SEQ ID NO 4] | < 100 µM
MACCTPRGCRPC [SEQ ID NO 283] | < 100 µM
RQCNCLSPGELVNCQQ [SEQ ID NO 307] | < 100 µM
HVICSVNGGCRG [SEQ ID NO 44] | < 100 µM
RRFCLRSEPAACWFV [SEQ ID NO 67] | < 100 µM
TKLCLKSEPQACWSM [SEQ ID NO 53] | < 100 µM
VSCRFRPDLGFCIF [SEQ ID NO 85] | < 100 µM
RYCSPLIPGSALGCPR [SEQ ID NO 272] | < 100 µM
SRCVMSLQLGACIF [SEQ ID NO 80] | < 100 µM
WWISCLRDLRCLEYF [SEQ ID NO 276] | < 100 µM
RSVCCSSYGCRACFG [SEQ ID NO 284] | < 100 µM
LSVCSCPPGQLYCMVE (disulfide (positions not given here); also: disulfide between two of the three Cys, which not given here) [SEQ ID NO 304] | < 100 µM
CRVWCNQAECMCIF [SEQ ID NO 287] | < 100 µM
WVACSWDHGCRS (disulfide 4-10 (inferred)) [SEQ ID NO 43] | < 100 µM
TTCCTSEGCHKCITL [SEQ ID NO 291] | < 100 µM
KYWCLRSEPDACFAT (disulfide 4-12 (inferred)) [SEQ ID NO 51] | < 100 µM
WVICSAVGCRPF (disulfide 4-9 (inferred)) [SEQ ID NO 31] | < 100 µM
WVICSALGCRPF [SEQ ID NO 35] | < 100 µM
SRCSFDVTKQECVF (disulfide 3-12 (inferred)) [SEQ ID NO 288] | < 100 µM
MVSCTDLGCVVVGGG [SEQ ID NO 302] | < 100 µM
